Laboratory results from US20150104459A1.
Values joined by “and” are separate entries in the source; they are usually repeats but may differ in a detail not shown here. Identical values can stand only once.

B1: TCN-555 (5246_L16) (antibody, V domains shown)
VH: QVQLVQSGAEVKRPGSSVKVSCTASGGIFRKNAISWVRQAPGQGLEWMGGIIAVFNTANYAQKFQNRVKITADESGNTAYMELSSLTSDDTAVYYCASHPKYFYGSGSYPDFWGQGTLVTVSS
VL: QSALTQPRSVSGSPGQSITISCTGGSSDIGASNSVSWYQQHPGKAPKLVIFDVTERPSGVPHRFSGSKSGNTASLTVSGLQPDDEADYFCCAYGGKYLVVFGGGTKVTVL
B2: TCN-523 (5248_A17) (antibody, V domains shown)
VH: QVQLVQSGAEVKKPGSSVKVSCKASGGSFSNYAFSWVRQAPGQGLEWMGGTIPLLGTTNYAQKFQGRVTISADQFTSTAYMELGSLRSEDTAVYYCTRRKMTTAFDSWGQGTLVTVSS
VL: QPVLTQPPSASASLGASVTLTCTLSSAYSNYKVDWYQQRPGKGPRFVMRVGTGGIVGSKGDGIPDRFSVLGSGLNRYLTIKNIQEEDESDYHCGADHGSGSNFVSPYVFGGGTKLTVL
B3: TCN-540 (5060_F05) (antibody, V domains shown)
VH: QVQLVQSGGGVVQPGRSLRLSCAASGFTFSSYAMHWVRQAPGKGLEWVAIISYDGNDQYYTDSVKGRFTISRDSSKVYLQMHRLRPEDTAVYYCAKEFETSGYFHGSFDYWGQGILVTVSS
VL: QSALTQPASVSGSPGQSITISCTGTSSDVGGYNYVSWYQQHPGKAPKLLIYEVTNWPSGVSNRFSGSKSGNTASLTISGLQAEDEADYYCSSYAGSSTWVFGGGTRVTVL
B4: TCN-557 (5081_A04) (antibody, V domains shown)
VH: QVQLVQSGAEVKKPGASVKVSCKASGHTFTGYYIHWVRQAPGQGLEWMGWINPDSGATSSAQNFQGRVTMTGDTSSSTAYMELSRLSFDDTAVYYCARVLFTSPFDFWGEGTLVTVSS
VL: QAVVTQEPSLAVSPGGTVTLTCGSSTGAVTRGHYPYWFQQKPGQAPRALIYDSAGNRHSWTPARFSGSLLGGKAALTLSGAQPEDEAEYYCLLSYSGVWVFGGGTKLTVL
B5: TCN-529 (5297_H01) (antibody, V domains shown)
VH: QITLRESGPTLVKPTQTLTLTCTFSGFSLSTNGVNVGWIRQPPGKALEWLALIYWDDDKRYSPSLKRRLTITKDTSKNQVVLTLTNMDPVDTATYYCAHRPDFYGDFEYWGPGTLVTVSS
VL: QSALTQPASVSGSPGQSITISCTGSSSDIGGYNYVSWYQQHPGKAPKLMIYDVNNRPSGVSNRFSGSKSGNTASLTISGLQTDDEADYYCGSYTGSPHYVFGTGTKVTVL
B6: TCN-535 (5246_P19) (antibody, V domains shown)
VH: QVQLVQSGSEVKKPGTSVKVSCTASGSVFTNYGISWVRQAPGQGLEWMGGIIPLFGAAKYAQKFQGRVTITADESTKTVYMELSRLTSKDTAIYFCAKAPRVYEYYFDQWGQGTPVTVSS
VL: EIVLTQSPGTLSLSPGERATLSCRASQSVSSSQLAWYQQKPGQAPRLIIYGASTRATGIPDRFSGSGSGTDFTLTIGRLEPEDFAVFFCQQYSTSPPTFGQGTKVDFK
B7: TCN-531 (5091_H13) (antibody, V domains shown)
VH: EVQLVESGGDLVQPGRSLKLSCTGSGFTFGDYGVTWVRQAPGKGLEWVGFIRTRPWGGTADTAASVKGRFTISRDDSKSLAYLQMNSLKTEDTAVYYCCRDAPPNVEVASMTNWYFDLWGRGTLVTVSS
VL: DIQLTQSPSSLSASVGDRVTITCRASQGILNCLAWYQQKPGKVPNLLMYAASTLQSGVPSRFSGSGFGTDFTLTISSLQPEDVATYYCQTYGGVSTFGGGTKVEIR

Columns and labels:
Conditions in all cases: remark: other sources report otherwise
[1] = molecular target: recombinant soluble homotrimeric HA of A/Anhui/1/05 (H5N1) (Influenza A virus A/Anhui/1/2005 (H5N1)); assay: HA microarray, BCC supernatant
[2] = molecular target: recombinant soluble homotrimeric HA of A/California/4/09 (H1N1) (Influenza A virus A/California/04/2009 (H1N1)); assay: HA microarray, BCC supernatant
[3] = molecular target: recombinant soluble homotrimeric HA of A/Egypt/3300-NAMRU3/08 (H5N1) (Influenza A virus A/Egypt/3300-NAMRU3/2008 (H5N1)); assay: HA microarray, BCC supernatant
[4] = molecular target: recombinant soluble homotrimeric HA of A/Indonesia/5/05 (H5N1) (Influenza A virus A/Indonesia/5/2005 (H5N1)); assay: HA microarray, BCC supernatant
[5] = molecular target: recombinant soluble homotrimeric HA of A/Japan/305/57 (H2N2) (Influenza A virus A/Japan/305/1957 (H2N2)); assay: HA microarray, BCC supernatant
[6] = molecular target: recombinant soluble homotrimeric HA of A/Solomon Islands/3/06 (H1N1) (Influenza A virus A/Solomon Islands/3/2006 (H1N1)); assay: HA microarray, BCC supernatant
[7] = molecular target: recombinant soluble homotrimeric HA of A/Vietnam/1203/04 (H5N1) (Influenza A virus A/Vietnam/1203/2004 (H5N1)); assay: HA microarray, BCC supernatant
[8] = molecular target: recombinant soluble homotrimeric HA of A/Wisconsin/67/05 (H3N2) (Influenza A virus A/Wisconsin/67/2005 (H3N2)); assay: HA microarray, BCC supernatant
[9] = molecular target: recombinant soluble homotrimeric HA of A/chicken/Vietnam/NCVD-016/08 (H5N1) (Influenza A virus A/chicken/Vietnam/NCVD-016/2008 (H5N1)); assay: HA microarray, BCC supernatant
[10] = molecular target: recombinant soluble homotrimeric HA of A/duck/Yangzhou/02/2005 (H8N4) (Influenza A virus A/duck/Yangzhou/02/2005 (H8N4)); assay: HA microarray, BCC supernatant
[11] = molecular target: recombinant soluble homotrimeric HA of A/northern shoveler/California/HKWF115/2007 (H6N1) (Influenza A virus A/northern shoveler/California/HKWF115/2007 (H6N1)); assay: HA microarray, BCC supernatant
[12] = molecular target: recombinant soluble homotrimeric HA of A/swine/Ontario/01911-2/99 (H4N6) (Influenza A virus A/Swine/Ontario/01911-2/99 (H4N6)); assay: HA microarray, BCC supernatant
[13] = molecular target: recombinant soluble homotrimeric HA, A/Hong Kong/156/97 (H5N1) (influenza A virus A/Hong Kong/156/97 (H5N1)); assay: microarray, trimeric HA, transfection supernatant
[14] = molecular target: recombinant soluble homotrimeric HA, A/chicken/Vietnam/NCVD-016/08 (H5N1) (influenza A virus A/chicken/Vietnam/NCVD-016/2008 (H5N1)); assay: microarray, trimeric HA, transfection supernatant
[15] = molecular target: recombinant soluble homotrimeric HA, A/northern shoveler/California/HKWF115/2007 (H6N1) (influenza A virus A/northern shoveler/California/HKWF115/2007 (H6N1)); assay: microarray, trimeric HA, transfection supernatant
[16] = molecular target: recombinant homotrimeric HA, A/swine/Ontario/01911-2/99 H4N6 (Influenza A virus A/swine/Ontario/01911-2/99 (H4N6)); assay: trimeric HA microarray; transfection supernatant set 5
[17] = molecular target: recombinant soluble homotrimeric HA, A/Hong Kong/1073/99 (H9N2) (influenza A virus A/Hong Kong/1073/99 (H9N2)); assay: microarray, trimeric HA, transfection supernatant
[18] = molecular target: recombinant soluble homotrimeric HA of A/Hong Kong/2108/03 (H9N2) (Influenza A virus A/Hong Kong/2108/2003 (H9N2)); assay: HA microarray, BCC supernatant
[19] = molecular target: recombinant soluble homotrimeric HA of A/Netherlands/219/03 (H7N7) (Influenza A virus A/Netherlands/219/03 (H7N7)); assay: HA microarray, BCC supernatant
[20] = molecular target: recombinant soluble homotrimeric HA, A/Anhui/1/05 (H5N1) (influenza A virus A/Anhui/1/2005 (H5N1)); assay: microarray, trimeric HA, transfection supernatant
[21] = molecular target: recombinant soluble homotrimeric HA, A/Netherlands/219/03 (H7N7) (influenza A virus A/Netherlands/219/03 (H7N7)); assay: microarray, trimeric HA, transfection supernatant
[22] = molecular target: recombinant soluble homotrimeric HA, A/duck/Yangzhou/02/2005 (H8N4) (influenza A virus A/duck/Yangzhou/02/2005 (H8N4)); assay: microarray, trimeric HA, transfection supernatant
[23] = molecular target: recombinant homotrimeric HA, A/Solomon Islands/3/06 H1N1 (Influenza A virus A/Solomon Islands/3/06 (H1N1)); assay: trimeric HA microarray; transfection supernatant set 3
[24] = molecular target: recombinant homotrimeric HA, A/Japan/305/57 H2N2 (Influenza A virus A/Japan/305/57 (H2N2)); assay: as above
[25] = molecular target: recombinant homotrimeric HA, A/Vietnam/1203/04 H5N1 (Influenza A virus A/Vietnam/1203/04 (H5N1)); assay: as above

Binder	Trimeric HA Binding RLU [1] [RLU]	Trimeric HA Binding RLU [2] [RLU]	Trimeric HA Binding RLU [3] [RLU]	Trimeric HA Binding RLU [4] [RLU]	Trimeric HA Binding RLU [5] [RLU]	Trimeric HA Binding RLU [6] [RLU]	Trimeric HA Binding RLU [7] [RLU]	Trimeric HA Binding RLU [8] [RLU]	Trimeric HA Binding RLU [9] [RLU]	Trimeric HA Binding RLU [10] [RLU]	Trimeric HA Binding RLU [11] [RLU]	Trimeric HA Binding RLU [12] [RLU]	Trimeric HA Binding RLU [13] [RLU]	Trimeric HA Binding RLU [14]	Trimeric HA Binding RLU [15]	further results
B1	1500	44900	42700	34500	2130	26400	876	9800	22300	18400	49500	1950	36300	35200 RLU	28700 RLU	Trimeric HA Binding: RLU [16]: 4520 RLU
B2	5700	34700	36500	45800	5110	37900	3380	–	48900	–	46900	–	28400	18900 RLU and 24000 RLU and 51300 RLU	29400 RLU and 25100 RLU and 46900 RLU	Trimeric HA Binding RLU [17]: 24200 RLU and 24600 RLU
B3	25	57	1970	31	2970	64	–	728	70	117	131	–	1550	1510 RLU	2460 RLU	Trimeric HA Binding RLU [18]: 22 RLU; Trimeric HA Binding RLU [19]: 381 RLU; Trimeric HA Binding RLU [20]: 2190 RLU; Trimeric HA Binding RLU [21]: 4390 RLU; Trimeric HA Binding RLU [22]: 6080 RLU
B4	46000	17600	–	45200	43400	40700	47300	10200	45500	50100	24400	27000	27100	23300 RLU	49600 RLU	Trimeric HA Binding RLU [18]: 35300 RLU; Trimeric HA Binding RLU [19]: 6780 RLU; Trimeric HA Binding RLU [20]: 20000 RLU; Trimeric HA Binding RLU [21]: 53700 RLU; Trimeric HA Binding RLU [22]: 24000 RLU
B5	–	–	–	–	435	179	–	51600	410	–	–	–	–	–	–	Trimeric HA Binding: RLU [23]: 43 RLU
B6	6880	48600	39400	45600	26100	39400	4740	34300	50000	36600	48200	5950	–	20900 RLU	18100 RLU	Trimeric HA Binding RLU [17]: 21200 RLU
B7	–	–	–	–	410	–	–	7090	–	3120	–	–	–	–	–	Trimeric HA Binding: RLU [24]: 489 RLU; Trimeric HA Binding: RLU [25]: 2410 RLU
